Here are results for 1 molecule from patent US7060495 (AVENTIS PHARMA DEUTSCHLAND, dated 2006).

The target in experiment [1] is T1, carcinoembryonic antigen (CEA) (UniProt P06731 35-685, limits assumed).
T1 construct: Tumor-associated antigen coated on microtiter plates in the specificity enzyme activity test
T1 sequence (looked up): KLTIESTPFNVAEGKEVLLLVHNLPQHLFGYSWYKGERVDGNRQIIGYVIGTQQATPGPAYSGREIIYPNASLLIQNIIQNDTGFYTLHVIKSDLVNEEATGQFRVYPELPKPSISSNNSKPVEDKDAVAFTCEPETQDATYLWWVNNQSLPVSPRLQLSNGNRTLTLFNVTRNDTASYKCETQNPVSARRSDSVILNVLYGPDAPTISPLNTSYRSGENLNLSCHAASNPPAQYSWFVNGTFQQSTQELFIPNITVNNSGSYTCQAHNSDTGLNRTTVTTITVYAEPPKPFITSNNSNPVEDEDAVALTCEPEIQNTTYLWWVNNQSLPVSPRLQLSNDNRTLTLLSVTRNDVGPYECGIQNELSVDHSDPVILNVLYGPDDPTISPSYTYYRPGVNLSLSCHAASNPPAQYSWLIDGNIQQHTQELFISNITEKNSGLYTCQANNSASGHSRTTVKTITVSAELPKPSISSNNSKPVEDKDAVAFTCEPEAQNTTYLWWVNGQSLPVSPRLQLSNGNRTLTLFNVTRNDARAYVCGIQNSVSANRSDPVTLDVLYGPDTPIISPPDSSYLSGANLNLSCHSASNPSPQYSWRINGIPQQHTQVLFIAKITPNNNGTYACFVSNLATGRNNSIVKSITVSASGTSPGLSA
Description: specificity enzyme activity test (refers to Example 5).
Description: (§1) The test determines the liberation of 4-methylumbelliferone from 4-methylumbelliferyl β-glucuronide by the β-glucuronidase portion of the fusion protein after the fusion protein has been bound via the sFv portion to an antigen. The measured fluorescence values are reported as relative fluorescence units (FU).

Experiment [2] concerns the target T2, polymorphic epithelial mucin (PEM) (UniProt P15941 24-1097, limits assumed).
T2 construct: Control antigen in the specificity enzyme activity test
In words: specificity enzyme activity test: antigen-coated plate, bound fusion protein detected by its β-glucuronidase activity on 4-methylumbelliferyl β-glucuronide.
Description: as §1

T2 sequence (P15941 24-1097 limits assumed): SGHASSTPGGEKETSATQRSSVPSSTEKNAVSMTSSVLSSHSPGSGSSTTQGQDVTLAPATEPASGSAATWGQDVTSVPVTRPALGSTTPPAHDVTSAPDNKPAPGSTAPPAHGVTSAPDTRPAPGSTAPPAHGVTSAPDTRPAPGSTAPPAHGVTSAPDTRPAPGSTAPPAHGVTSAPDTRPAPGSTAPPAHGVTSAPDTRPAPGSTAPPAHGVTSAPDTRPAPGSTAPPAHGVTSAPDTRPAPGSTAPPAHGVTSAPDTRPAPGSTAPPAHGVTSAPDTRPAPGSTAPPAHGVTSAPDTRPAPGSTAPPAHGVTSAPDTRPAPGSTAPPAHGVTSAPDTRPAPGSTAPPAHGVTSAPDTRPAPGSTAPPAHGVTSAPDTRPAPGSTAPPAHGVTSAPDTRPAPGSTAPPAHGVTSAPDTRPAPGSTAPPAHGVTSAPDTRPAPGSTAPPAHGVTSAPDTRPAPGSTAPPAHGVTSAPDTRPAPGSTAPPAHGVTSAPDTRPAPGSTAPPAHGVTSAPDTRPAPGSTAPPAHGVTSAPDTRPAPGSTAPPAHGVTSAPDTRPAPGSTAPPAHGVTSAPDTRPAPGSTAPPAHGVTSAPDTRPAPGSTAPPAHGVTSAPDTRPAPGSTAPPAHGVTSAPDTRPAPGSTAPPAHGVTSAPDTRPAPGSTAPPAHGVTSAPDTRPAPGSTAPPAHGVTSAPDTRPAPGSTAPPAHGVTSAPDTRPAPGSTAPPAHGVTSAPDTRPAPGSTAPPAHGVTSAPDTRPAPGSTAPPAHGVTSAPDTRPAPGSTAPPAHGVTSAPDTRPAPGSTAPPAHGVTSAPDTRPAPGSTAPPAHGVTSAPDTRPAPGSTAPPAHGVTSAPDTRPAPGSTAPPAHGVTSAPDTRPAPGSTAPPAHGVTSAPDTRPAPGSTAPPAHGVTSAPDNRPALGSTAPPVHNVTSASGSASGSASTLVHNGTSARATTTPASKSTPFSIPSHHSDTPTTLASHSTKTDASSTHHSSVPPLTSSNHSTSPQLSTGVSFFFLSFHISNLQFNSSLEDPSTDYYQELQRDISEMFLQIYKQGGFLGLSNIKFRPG

B1: sFv-huβ-Gluc fusion protein (humanized sFv 431/26 against CEA linked via a hinge to human β-glucuronidase, expressed in BHK cells) (other)
chain: QVQLQESGPGLVRPSQTLSLTCTVSGFTISSGYSWHWVRQPPGRGLEWIGYIQYSGITNYNPSLKSRVTMLVDTSKNQFSLRLSSVTAADTAVYYCAREDYDYHWYFDVWGQGTTVTVSSGGGGSGGGGSGGGGSDIQLTQSPSSLSASVGDRVTITCSTSSSVSYMHWYQQKPGKAPKLLIYSTSNLASGVPSRFSGSGSGTDFTFTISSLQPEDIATYYCHQWSSYPTFGQGTKLEIKELKTPLGDTTHTCPRCPAAAAVQGGMLYPQESPSRECKELDGLWSFRADFSDNRRRGFEEQWYRRPLWESGPTVDMPVPSSFNDISQDWRLRHFVGWVWYEREVILPERWTQDLRTRVVLRIGSAHSYAIVWVNGVDTLEHEGGYLPFEADISNLVQVGPLPSRLRITIAINNTLTPTTLPPGTIQYLTDTSKYPKGYFVQNTYFDFFNYAGLQRSVLLYTTPTTYIDDITVTTSVEQDSGLVNYQISVKGSNLFKLEVRLLDAENKVVANGTGTQGQLKVPGVSLWWPYLMHERPAYLYSLEVQLTAQTSLGPVSDFYTLPVGIRTVAVTKSQFLINGKPFYFHGVNKHEDADIRGKGFDWPLLVKDFNLLRWLGANAFRTSHYPYAEEVMQMCDRYGIVVIDECPGVGLALPQFFNNVSLHHHMQVMEEVVRRDKNHPAVVMWSVANEPASHLESAGYYLKMVIAHTKSLDPSRPVTFVSNSNYAADKGAPYVDVICLNSYYSWYHDYGHLELIQLQLATQFENWYKKYQKPIIQSEYGAETIAGFHQDPPLMFTEEYQKSLLEQYHLGLDQKRRKYVVGELIWNFADFMTEQSPTRVLGNKKGIFTRQRQPKSAAFLLRERYWKIANETRYPHSVAKSQCLENSPFT
modifications: glycosylated (galactose, mannose and other carbohydrates, Table 2)
notes: scFv-enzyme fusion
Turning to B1, the figures for the binding result in experiment [1] and in experiment [2] were “binds” and “no binding”, respectively.
